Results on 6 molecules are retold here after CN115386006A (SHANGHAI XIANGYAO BIOLOGICAL TECH CO LTD, dated 2022).

B1: HTS0370 scFv (scFv, V domains shown)
VH: EVQLQQSGAELMKPGASVKISCKATGYTFSSYWMEWVKQRPGLGLEWIGQILPGSSYTNYNDKFKGKATFTADTSSNTAYMQLSSLTSEDSAVYYCAKKGGPIYYGNRPFYYAMDYWGQGTSVTVSS
VL: NIMMTQTPKFLLVSAGDRVTITCKASQSVSNDVAWYQQKPGQSPKLQIYYASNRYTGVPDRFTGSGYGTDFTFTISTVQAEDLAVYFCQQDYSSPLTFGAGTKLEIK
notes: Tested as one scFv chain in E. coli supernatant, found with an anti-6xHis antibody
B2: HTS0371 scFv (scFv, V domains shown)
VH: EVQLQQSGPELVKPGASVKMSCKASGYTFTSYVMHWVKQKPGQGLEWIGYINPYNDGTKYNEKFKGKATLTSDKSSSTAYMELSSLTSEDSAVYYCARGGKLNWYFDVWGAGTTVTVSS
VL: NIVMTQSPASLAVSLGQRATISCRASESVDSYGNSFMHWYQQKPGQPPKLLIYLASNLESGVPARFSGSGSRTDFTLTIDPVEADDAATYYCQQNNEDPYTFGGGTKLEIN
notes: as for B1
B3: HTS0373 scFv (scFv, V domains shown)
VH: EVQLQQSGPELVKPGASMKISCKASGYSFAGYTVNWVKQSHGKNLEWIGLINPYNGGTTYTPKFKDKATLTVDKSSSTAYMELLSLTSEDSAVYYCTRGGFYRYDFDFWGQGTSVTVSS
VL: DILMTQSPSSLSASLGERVSLTCRASQEISGYLSWLQQKPDGTIKRLIYAASTLDSGVPKRFSGSRSGSDYSLTISSLESEDFADYYCLQYASYPFTFGSGTKLEMK
notes: as for B1
B4: HTS0374 scFv (scFv, V domains shown)
VH: QVQLQQSGPELVKPGTSMKISCKASGYSFTGYTVNWVKQSHGKNLEWIGLINPYNGGTTYTPKFKDKATLTVDKSSSTAYMELLSLTSEDSAVYYCTRGGFYRYDFDFWGQGTSLTVSS
VL: EIQMTQSPSSLSASLGERVSLTCRASQDIGSSLNWLQQEPDGTIKRLIYATSSLDSGVPKRFSGSRSGSDYSLTISSLESEDFVDYYCLQYASSPYTFGGGTKLEMK
notes: as for B1
B5: HTS0372 scFv (scFv, V domains shown)
VH: EVQLQQSGPELVKPGASMKISCKASGYSFTGYTMNWVKQSHGKNLEWIGLINPYNGRTIYNQKFKGKATLTVDKSSSTAYMELLSLTSEDSAVYYCARVALRYAMDYWGQGTSLTVSS
VL: DIVMTQSQKFMSTSVGDRVSVTCKASQNVGTNVAWYQQKPGQSPKALIYSASYRYSGVPDRFTGSGSGTDFTLTISNVQSEDLAEYFCQQYNSYPLTFGAGTKLEIN
notes: as for B1
B6: HTS0375 scFv (scFv, V domains shown)
VH: EVQLQQSGPELVKPGASMKISCKASGYSFTGYTMNWVKQSHGKNLEWIGLINPYNGRTIYNQKFKGKATLTVDKSSSTAYMELLSLTSEDSAVYYCARVALRYAMDYWGQGTSLTVSS
VL: SIVMTQSQKFMSTSVGDKVSVTCKASQSVYTNVAWYQQKPGQSPKSLIYSASYRYNGVPDRFTGSGSGTDFTLTISNVQSEDLAEYFCQQYNSYPVTFGAGTKLEIK
notes: as for B1

This experiment deals with T1, 人GPRC5D (human G protein-coupled receptor family C group 5 member D) (human, UniProt Q9NZD1 1-345).
T1 construct: also called huGPRC5D; hGPRC5D
T1 sequence (Q9NZD1 whole entry): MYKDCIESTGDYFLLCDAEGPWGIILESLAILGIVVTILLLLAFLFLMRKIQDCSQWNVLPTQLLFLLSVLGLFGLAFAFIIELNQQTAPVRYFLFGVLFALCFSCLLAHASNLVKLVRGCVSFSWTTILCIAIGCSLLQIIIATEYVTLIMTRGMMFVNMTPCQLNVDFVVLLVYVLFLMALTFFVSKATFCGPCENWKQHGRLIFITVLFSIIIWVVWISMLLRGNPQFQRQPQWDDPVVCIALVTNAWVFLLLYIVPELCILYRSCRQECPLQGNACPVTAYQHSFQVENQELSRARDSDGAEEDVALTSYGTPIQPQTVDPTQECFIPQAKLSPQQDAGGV
Briefly: flow cytometry, scFv supernatant on HEK293-GPRC5D-ZSGreen1 and H929 cells, APC anti-6xHis. (In general: A flow cytometer gives signals particle by particle.)
As to B1, the binding result is listed as “binds”.
Then B2, with “binds”; and B3, with “binds”.
Consider B4, for which the binding result is reported as “binds”.
Then B5, with “binds”.
With B6, the binding result is listed as “binds”.
